From ChEMBL document CHEMBL1153299, “Carbonic anhydrase activators: activation of the beta-carbonic anhydrase Nce103 from the yeast Saccharomyces cerevisiae with amines and amino acids” (Bioorg Med Chem Lett, 2009)

Substrate: NCCc1c[nH]cn1
Conditions: Saccharomyces cerevisiae
Description: Activity at yeast recombinant CA expressed in Escherichia coli

B1: Carbonic anhydrase (Saccharomyces cerevisiae S288c), P53615 (protein)
chain: MSATESSSIFTLSHNSNLQDILAANAKWASQMNNIQPTLFPDHNAKGQSPHTLFIGCSDSRYNENCLGVLPGEVFTWKNVANICHSEDLTLKATLEFAIICLKVNKVIICGHTDCGGIKTCLTNQREALPKVNCSHLYKYLDDIDTMYHEESQNLIHLKTQREKSHYLSHCNVKRQFNRIIENPTVQTAVQNGELQVYGLLYNVEDGLLQTVSTYTKVTPK
kcat: 19.6 ×10⁵ /s
